Laboratory results reported in the supplement of paper PMC10126150.
± gives the standard deviation of the averaged measurements.
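Also: ATP exposure 15 min at 22 °C before imaging.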

These sequences were tested on ATP (assay: switch fluorescence ratio, 500 uM ATP over buffer (Cy3 cluster intensity, sum of 5 cycles each) (fold (ratio)); higher = stronger signal-on switching upon ATP binding; sequences stand for … in TCGTCGGCAGCGTCAGATGTGTATAAGAGACAGTTTTTTTTTTTTTTTTTTTTTTTTT…TC). Details: aptamer strand: ATP DNA aptamer (quencher-CACCTGGGGGAGTATTGCGGAGGAAGG + anchor), 100 nM annealed; ATP concentration: 500 uM.
In short: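 After annealing to 100 nM quencher-labelled ATP aptamer, Cy3-labelled switching-strand clusters on a modified Illumina MiSeq flow-cell were imaged in selection buffer. A second image followed after 15 min with 500 uM ATP at 22 °C, and five such buffer/ATP cycles were done, each separated by NaOH stripping and re-annealing. The fluorescence ratio, averaged per switch-domain sequence, is summed target-cycle over summed buffer-cycle Cy3 intensity per cluster, with clusters outside 100-1000 RFU excluded.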
AAACGAGGGT showed a switch fluorescence ratio of 1.02 ± 0.03.
In the case of AAACGATGTG, the switch fluorescence ratio is reported as 0.985 ± 0.023.
Sequence AAACGCAAAG has a switch fluorescence ratio of 1.27 ± 0.3.
In the case of AAACGGGGCT, the switch fluorescence ratio is reported as 1.02 ± 0.012.
AAACTGTAAT was tested, and the switch fluorescence ratio was 1.08 ± 0.017.
For AAACTTGTAC, the switch fluorescence ratio was 1.1 ± 0.036.
Work on AAACTTTGTT yielded a switch fluorescence ratio of 1.02 ± 0.039.
Sequence AAAGAAAGC has a switch fluorescence ratio of 1.02 ± 0.08.
Work on AAAGAAAGCG yielded a switch fluorescence ratio of 0.997 ± 0.042.
AAAGAAATTG was tested, and the switch fluorescence ratio was 1.01 ± 0.035.
With AAAGAACGGG the switch fluorescence ratio was 1.04 ± 0.023.
Sequence AAAGAAGCAT has a switch fluorescence ratio of 1.001 ± 0.0059.
For AAAGAAGGGA, the switch fluorescence ratio was 0.981 ± 0.015.
AAAGAAGGGC gave a switch fluorescence ratio of 0.938 ± 0.05.
AAAGACAGGG was tested, and the switch fluorescence ratio was 0.976 ± 0.036.
For AAAGACGGTT, the switch fluorescence ratio was 0.997 ± 0.013.
AAAGAGAAGT gave a switch fluorescence ratio of 1.02 ± 0.019.
Sequence AAAGAGAGTA has a switch fluorescence ratio of 1.01 ± 0.038.
With AAAGAGCGCC the switch fluorescence ratio was 0.947 ± 0.03.
Work on AAAGAGGAGA yielded a switch fluorescence ratio of 1.02 ± 0.023.
In the case of AAAGAGGGG, the switch fluorescence ratio is reported as 0.98 ± 0.029.
In the case of AAAGAGGGGG, the switch fluorescence ratio is reported as 1.03 ± 0.049.
In the case of AAAGAGTCCT, the switch fluorescence ratio is reported as 1.01 ± 0.029.
Work on AAAGAGTTGA yielded a switch fluorescence ratio of 1 ± 0.022.
AAAGAGTTGC was tested, and the switch fluorescence ratio was 0.9785 ± 0.0069.
AAAGAGTTTT gave a switch fluorescence ratio of 1.02 ± 0.071.
In the case of AAAGATAATT, the switch fluorescence ratio is reported as 0.982 ± 0.018.
With AAAGATATAA the switch fluorescence ratio was 1.03 ± 0.036.
With AAAGATGATG the switch fluorescence ratio was 1.0025 ± 0.00068.
AAAGATGCGG was tested, and the switch fluorescence ratio was 1.01 ± 0.066.
For AAAGATGGCT, the switch fluorescence ratio was 0.98 ± 0.025.
In the case of AAAGATTAAA, the switch fluorescence ratio is reported as 0.9918 ± 0.0056.
AAAGATTCGA was tested, and the switch fluorescence ratio was 0.996 ± 0.01.
In the case of AAAGATTTGT, the switch fluorescence ratio is reported as 0.978 ± 0.016.
For AAAGCAATGG, the switch fluorescence ratio was 2.51 ± 2.
AAAGCAATTG was tested, and the switch fluorescence ratio was 1.077 ± 0.0065.
Work on AAAGCAGGGA yielded a switch fluorescence ratio of 1.04 ± 0.043.
AAAGCATAAC was tested, and the switch fluorescence ratio was 1.91 ± 0.14.
AAAGCGGGGG showed a switch fluorescence ratio of 1.04 ± 0.016.
AAAGCGTGGA showed a switch fluorescence ratio of 1 ± 0.011.
In the case of AAAGCGTGTG, the switch fluorescence ratio is reported as 1.01 ± 0.043.
Sequence AAAGCTATTC has a switch fluorescence ratio of 1.12 ± 0.16.
In the case of AAAGCTCACC, the switch fluorescence ratio is reported as 1.12 ± 0.026.
AAAGGAAGGT gave a switch fluorescence ratio of 1.01 ± 0.024.
For AAAGGAGGAA, the switch fluorescence ratio was 0.989 ± 0.019.
With AAAGGAGGGC the switch fluorescence ratio was 0.968 ± 0.067.
AAAGGAGTTT was tested, and the switch fluorescence ratio was 1.01 ± 0.072.
AAAGGATGAG was tested, and the switch fluorescence ratio was 0.979 ± 0.019.
In the case of AAAGGATGAT, the switch fluorescence ratio is reported as 0.9978 ± 0.0031.
AAAGGCATGT gave a switch fluorescence ratio of 1.04 ± 0.017.
Work on AAAGGCGTAT yielded a switch fluorescence ratio of 1.008 ± 0.0036.
In the case of AAAGGCGTCA, the switch fluorescence ratio is reported as 1.01 ± 0.016.
For AAAGGCGTTA, the switch fluorescence ratio was 0.9971 ± 0.0062.
AAAGGGAAAT was tested, and the switch fluorescence ratio was 0.975 ± 0.037.
Sequence AAAGGGAACC has a switch fluorescence ratio of 1.017 ± 0.0037.
In the case of AAAGGGATAT, the switch fluorescence ratio is reported as 0.975 ± 0.049.
AAAGGGCCTT showed a switch fluorescence ratio of 1.003 ± 0.0024.
With AAAGGGCGAC the switch fluorescence ratio was 0.973 ± 0.014.
With AAAGGGGATG the switch fluorescence ratio was 1.01 ± 0.016.
AAAGGGGGAT was tested, and the switch fluorescence ratio was 1 ± 0.023.
With AAAGGGGTAA the switch fluorescence ratio was 0.982 ± 0.02.
Work on AAAGGGGTAC yielded a switch fluorescence ratio of 1.04 ± 0.016.
For AAAGGGGTGC, the switch fluorescence ratio was 1.05 ± 0.048.
AAAGGGTAAT showed a switch fluorescence ratio of 0.984 ± 0.018.
In the case of AAAGGGTAGT, the switch fluorescence ratio is reported as 0.9813 ± 0.0014.
For AAAGGTAATC, the switch fluorescence ratio was 1.01 ± 0.023.
With AAAGGTATTC the switch fluorescence ratio was 1 ± 0.02.
With AAAGGTGATA the switch fluorescence ratio was 1.03 ± 0.037.
AAAGGTGGCA gave a switch fluorescence ratio of 1 ± 0.017.
Sequence AAAGGTGGGG has a switch fluorescence ratio of 1.001 ± 0.01.
For AAAGGTGTGT, the switch fluorescence ratio was 1.04 ± 0.073.
Work on AAAGGTTAAA yielded a switch fluorescence ratio of 0.99 ± 0.018.
With AAAGGTTGCT the switch fluorescence ratio was 1.007 ± 0.01.
In the case of AAAGGTTGGG, the switch fluorescence ratio is reported as 0.992 ± 0.044.
AAAGGTTTTT was tested, and the switch fluorescence ratio was 0.988 ± 0.016.
AAAGTAAGCC showed a switch fluorescence ratio of 0.984 ± 0.018.
With AAAGTACCCG the switch fluorescence ratio was 1.07 ± 0.04.
